Our source for the binding signal values is article PMC6555819, “Comprehensive study of nuclear receptor DNA binding provides a revised framework for understanding receptor specificity”.

B1: NRC3_wobSeed113_DR4_G15A_o1 (dsDNA)
DNA 1: GCATATGTAGGTTAACTGGGGTCATTCAGACTAGGCGCGATTGACAGCGTAGAATGAAGG
DNA 2: CCTTCATTCTACGCTGTCAATCGCGCCTAGTCTGAATGACCCCAGTTAACCTACATATGC
B2: NRC3_wobSeed49_DR2_T8G_o1 (dsDNA)
DNA 1: GCCAAACGAGGTCAAGAGGTCAAAGTCCGCTTCCCGGCGATTGACAGCGTAGAATGAAGG
DNA 2: CCTTCATTCTACGCTGTCAATCGCCGGGAAGCGGACTTTGACCTCTTGACCTCGTTTGGC
B3: NRC3_wobSeed119_DR4_G23C_o1 (dsDNA)
DNA 1: GCGGAACGAGGGCATTCGAGTTCATAGCATGGCGATGCGATTGACAGCGTAGAATGAAGG
DNA 2: CCTTCATTCTACGCTGTCAATCGCATCGCCATGCTATGAACTCGAATGCCCTCGTTCCGC
B4: NRC3_wobSeed120_DR4_G22T_o1 (dsDNA)
DNA 1: GCCCGAGTAGGTTACGAGGGGTCATTCAGTGCGAATGCGATTGACAGCGTAGAATGAAGG
DNA 2: CCTTCATTCTACGCTGTCAATCGCATTCGCACTGAATGACCCCTCGTAACCTACTCGGGC
B5: NRC3_wobSeed77_DR3_T22C_o1 (dsDNA)
DNA 1: GCACTTACGGGTCAACGAGGTCATAGCACGCGTATAGCGATTGACAGCGTAGAATGAAGG
DNA 2: CCTTCATTCTACGCTGTCAATCGCTATACGCGTGCTATGACCTCGTTGACCCGTAAGTGC
B6: NRC3_wobSeed94_DR3_G13C_o1 (dsDNA)
DNA 1: GCCTACCAAGGTCAACAAGGTCGTTGATTACTATTCGCGATTGACAGCGTAGAATGAAGG
DNA 2: CCTTCATTCTACGCTGTCAATCGCGAATAGTAATCAACGACCTTGTTGACCTTGGTAGGC
B7: NRC3_wobSeed117_DR4_A23T_o1 (dsDNA)
DNA 1: GCCGTCAAAGTTCAACTAAGGTTACGTAAAGCACGCGCGATTGACAGCGTAGAATGAAGG
DNA 2: CCTTCATTCTACGCTGTCAATCGCGCGTGCTTTACGTAACCTTAGTTGAACTTTGACGGC
B8: NRC3_random_hg19_419_o1 (dsDNA)
DNA 1: GCAGAGCAGACTTCCTGTGTATGTTAGGATGAAACCGCGATTGACAGCGTAGAATGAAGG
DNA 2: CCTTCATTCTACGCTGTCAATCGCGGTTTCATCCTAACATACACAGGAAGTCTGCTCTGC
B9: NRC3_random_hg19_103_o1 (dsDNA)
DNA 1: GCTCAGGAGTTCGAGAACAGCCTGGCTAACATGGCGGCGATTGACAGCGTAGAATGAAGG
DNA 2: CCTTCATTCTACGCTGTCAATCGCCGCCATGTTAGCCAGGCTGTTCTCGAACTCCTGAGC
B10: NRC3_wobSeed114_DR4_C22T_o1 (dsDNA)
DNA 1: GCAATACAGGGTCATCGTAGGTCAGAGTACGCACAGGCGATTGACAGCGTAGAATGAAGG
DNA 2: CCTTCATTCTACGCTGTCAATCGCCTGTGCGTACTCTGACCTACGATGACCCTGTATTGC
B11: NRC3_wobSeed133_DR5_C18T_o1 (dsDNA)
DNA 1: GCCGTCCAAGGTCAATGTTAGGTCAGTGAAAGCATTGCGATTGACAGCGTAGAATGAAGG
DNA 2: CCTTCATTCTACGCTGTCAATCGCAATGCTTTCACTGACCTAACATTGACCTTGGACGGC
B12: NRC3_wobSeed73_DR3_A18G_o1 (dsDNA)
DNA 1: GCCAAACTAGGTCACAGGGGTCAAAGTCCGTGCGTAGCGATTGACAGCGTAGAATGAAGG
DNA 2: CCTTCATTCTACGCTGTCAATCGCTACGCACGGACTTTGACCCCTGTGACCTAGTTTGGC
B13: NRC3_random_hg19_47_o1 (dsDNA)
DNA 1: GCGCCTTCAGGAACATGCTATTCTGTCTATGGAGTCGCGATTGACAGCGTAGAATGAAGG
DNA 2: CCTTCATTCTACGCTGTCAATCGCGACTCCATAGACAGAATAGCATGTTCCTGAAGGCGC
B14: NRC3_wobSeed138_DR5_C13G_o1 (dsDNA)
DNA 1: GCGATACAGGGTGAGCTAGAGGCCAGAGTATGGAAAGCGATTGACAGCGTAGAATGAAGG
DNA 2: CCTTCATTCTACGCTGTCAATCGCTTTCCATACTCTGGCCTCTAGCTCACCCTGTATCGC
B15: NRC3_random_hg19_372_o1 (dsDNA)
DNA 1: GCGAGGTTGCAGTGAGCCAAGATTGCACCACTGCACGCGATTGACAGCGTAGAATGAAGG
DNA 2: CCTTCATTCTACGCTGTCAATCGCGTGCAGTGGTGCAATCTTGGCTCACTGCAACCTCGC
B16: NRC3_random_hg19_80_o1 (dsDNA)
DNA 1: GCCAATACAGCTTTGGCTTCTGCAGAATCTGAGGAAGCGATTGACAGCGTAGAATGAAGG
DNA 2: CCTTCATTCTACGCTGTCAATCGCTTCCTCAGATTCTGCAGAAGCCAAAGCTGTATTGGC

Chain of VDR:RXRa (P11473 whole entry, chain 1 of 2): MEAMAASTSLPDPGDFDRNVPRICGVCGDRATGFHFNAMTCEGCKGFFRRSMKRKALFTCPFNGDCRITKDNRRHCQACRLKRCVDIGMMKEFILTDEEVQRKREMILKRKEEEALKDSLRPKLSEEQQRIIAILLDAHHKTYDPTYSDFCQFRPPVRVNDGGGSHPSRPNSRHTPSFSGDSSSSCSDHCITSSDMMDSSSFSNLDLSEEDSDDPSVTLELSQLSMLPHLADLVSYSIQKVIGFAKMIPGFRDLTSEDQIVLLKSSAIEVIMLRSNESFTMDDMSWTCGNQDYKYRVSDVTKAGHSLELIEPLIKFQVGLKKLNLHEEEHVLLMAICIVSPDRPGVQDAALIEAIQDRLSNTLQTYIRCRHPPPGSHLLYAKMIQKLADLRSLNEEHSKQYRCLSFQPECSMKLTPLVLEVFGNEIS
Chain of VDR:RXRa (P19793 whole entry, chain 2 of 2): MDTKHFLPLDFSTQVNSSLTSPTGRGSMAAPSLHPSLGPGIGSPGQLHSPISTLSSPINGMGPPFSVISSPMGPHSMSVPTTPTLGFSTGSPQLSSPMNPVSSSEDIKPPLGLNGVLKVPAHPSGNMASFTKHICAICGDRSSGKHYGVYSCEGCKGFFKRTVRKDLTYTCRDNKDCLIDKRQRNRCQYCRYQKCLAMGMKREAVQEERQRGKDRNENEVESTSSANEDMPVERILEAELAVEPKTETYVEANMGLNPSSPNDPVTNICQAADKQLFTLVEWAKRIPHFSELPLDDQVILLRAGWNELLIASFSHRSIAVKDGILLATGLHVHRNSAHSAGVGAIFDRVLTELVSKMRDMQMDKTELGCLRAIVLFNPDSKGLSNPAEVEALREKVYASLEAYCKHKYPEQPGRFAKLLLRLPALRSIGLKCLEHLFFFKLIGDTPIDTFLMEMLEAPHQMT

One data set deals with VDR:RXRa (Homo sapiens, UniProt P11473;P19793 full;full). As to the kind of experiment: no ligand; PBM; 270 nM : 90 nM RXRa; PBS pH 7.4, 2% milk, 0.02% Triton X-100, 1 mM DTT, BSA, 0.4 mg/ml salmon testes DNA. As to conditions: tags: His kept;His cleaved; copies: 1;1; label: surface-attached array probe. In short, it runs like this:
(§1)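 Custom Agilent 4×180K protein-binding microarrays carried double-stranded probes, each with a 34-nt variable region. These regions held direct-repeat seeds, single-nucleotide variants, half-site ablations and random human genomic background sequences. Ligand-free nuclear receptor dimers were incubated on the arrays for 1 h, antibodies against each partner (one per run) detected binding, and scanned fluorescence was regression-normalized. Binding z-scores take the random background probes as reference.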
With B1, the binding signal is 7.19 PBM z-score against 500 random probes.
On the same count and under the same terms, with B2 the figure was 7.24 PBM z-score against 500 random probes; with B3, 7.03 PBM z-score against 500 random probes; with B4, 6.94 PBM z-score against 500 random probes.
On the same count and under the same terms, the figure for B5 is 8.66 PBM z-score against 500 random probes; for B6 it is 8.68 PBM z-score against 500 random probes.

The target of another data set is LXRa:RXRa (Homo sapiens, UniProt Q13133;P19793 full;full). The description is as above. As to conditions: tags: His kept;His cleaved; copies: 1;1; label: surface-attached array probe. In short, it runs like this:
as §1
In the case of B7, the binding signal is 7.31 PBM z-score against 500 random probes.
The same measure, in the same setting: the figure for B8 is -0.87 PBM z-score against 500 random probes.
Take B9: the binding signal is 0.13 PBM z-score against 500 random probes.
For the molecule B1, the binding signal is 7.87 PBM z-score against 500 random probes.
In the case of B2, the binding signal is 7.08 PBM z-score against 500 random probes.
The same measure, in the same setting: the figure for B3 is 6.87 PBM z-score against 500 random probes.
Same read-out and setting: with B4 the figure was 8.11 PBM z-score against 500 random probes; with B6, 6.7 PBM z-score against 500 random probes; with B10, 7.62 PBM z-score against 500 random probes.

The next data set deals with LXRb:RXRa (Homo sapiens, UniProt P55055;P19793 full;full). Described as above. To be noted: tags: His kept;His cleaved; copies: 1;1; label: surface-attached array probe. In short, it runs like this:
as §1
For B1, the binding signal is 6.88 PBM z-score against 500 random probes.
Same read-out and setting: with B2 the figure was 6.98 PBM z-score against 500 random probes; with B4, 7.35 PBM z-score against 500 random probes; with B5, 6.07 PBM z-score against 500 random probes.
B6: the binding signal is 5.94 PBM z-score against 500 random probes.
The same measure, in the same setting: the figure for B10 is 6.24 PBM z-score against 500 random probes.

Another data set deals with PXR:RXRa (Homo sapiens, UniProt O75469;P19793 full;full). The description is as above. As to conditions: tags: His kept;His cleaved; copies: 1;1; label: surface-attached array probe. In short, it runs like this: as §1
On to B7, for which the binding signal was 6.82 PBM z-score against 500 random probes.
Same read-out and setting: the figure for B8 is -0.62 PBM z-score against 500 random probes.
On the same count and under the same terms, with B9 the figure was 0.28 PBM z-score against 500 random probes.
On the same count and under the same terms, with B1 the figure was 6.99 PBM z-score against 500 random probes; with B2, 7.24 PBM z-score against 500 random probes; with B3, 7.11 PBM z-score against 500 random probes.
Consider B4, for which the binding signal was 6.59 PBM z-score against 500 random probes.
Regarding B5, the binding signal was 6.59 PBM z-score against 500 random probes.
On the same count and under the same terms, with B6 the figure was 6.83 PBM z-score against 500 random probes; with B10, 6.36 PBM z-score against 500 random probes.

In the next data set the target is FXR:RXRa (Homo sapiens, UniProt Q96RI1;P19793 full;full). Described as above. To be noted: tags: His kept;His cleaved; copies: 1;1; label: surface-attached array probe. The method in brief: as §1
Chain of FXR:RXRa (Q96RI1 whole entry, chain 1 of 2): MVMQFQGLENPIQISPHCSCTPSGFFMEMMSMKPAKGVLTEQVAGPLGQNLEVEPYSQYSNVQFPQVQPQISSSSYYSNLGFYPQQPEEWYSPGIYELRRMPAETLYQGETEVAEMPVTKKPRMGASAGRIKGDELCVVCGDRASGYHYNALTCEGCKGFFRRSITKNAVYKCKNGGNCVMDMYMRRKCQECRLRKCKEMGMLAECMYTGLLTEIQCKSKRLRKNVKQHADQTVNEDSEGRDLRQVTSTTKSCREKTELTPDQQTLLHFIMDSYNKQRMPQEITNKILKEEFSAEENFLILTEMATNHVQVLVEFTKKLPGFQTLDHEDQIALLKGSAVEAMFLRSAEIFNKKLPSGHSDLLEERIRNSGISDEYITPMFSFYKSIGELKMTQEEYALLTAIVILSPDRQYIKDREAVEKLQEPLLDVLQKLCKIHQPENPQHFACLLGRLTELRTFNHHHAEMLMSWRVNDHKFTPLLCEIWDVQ
Chain of FXR:RXRa (P19793 whole entry, chain 2 of 2): as the sequence (P19793 whole entry, chain 2 of 2) above
Consider B8, for which the binding signal was -0.65 PBM z-score against 500 random probes.
On the same count and under the same terms, with B2 the figure was 8.68 PBM z-score against 500 random probes.
The same measure, in the same setting: the figure for B6 is 8.19 PBM z-score against 500 random probes.

The target in another data set is RARb:RXRa (Homo sapiens, UniProt P10826;P19793 full;full). Described as above. To be noted: tags: His kept;His cleaved; copies: 1;1; label: surface-attached array probe. In short, it runs like this: as §1
Chain of RARb:RXRa (P10826 whole entry, chain 1 of 2): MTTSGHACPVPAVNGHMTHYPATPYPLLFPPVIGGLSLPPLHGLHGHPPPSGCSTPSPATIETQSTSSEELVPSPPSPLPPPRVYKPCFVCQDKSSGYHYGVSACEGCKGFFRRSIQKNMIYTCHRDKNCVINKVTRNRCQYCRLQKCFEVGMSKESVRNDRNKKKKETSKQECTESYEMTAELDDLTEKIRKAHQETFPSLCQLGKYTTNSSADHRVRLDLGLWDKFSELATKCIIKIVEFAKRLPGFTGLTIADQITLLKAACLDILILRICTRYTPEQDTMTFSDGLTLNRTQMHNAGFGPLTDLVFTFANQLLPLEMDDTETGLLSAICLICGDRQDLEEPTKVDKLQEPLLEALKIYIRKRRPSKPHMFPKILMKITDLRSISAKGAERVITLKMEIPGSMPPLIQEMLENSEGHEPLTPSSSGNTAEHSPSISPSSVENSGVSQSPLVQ
Chain of RARb:RXRa (P19793 whole entry, chain 2 of 2): as the sequence (P19793 whole entry, chain 2 of 2) above
Take B2: the binding signal is 6.35 PBM z-score against 500 random probes.
On the same count and under the same terms, the figure for B11 is 5.45 PBM z-score against 500 random probes; for B6 it is 5.51 PBM z-score against 500 random probes.

A further data set has as its target RARg:RXRa (Homo sapiens, UniProt P13631;P19793 full;full). The data set is described as above. To be noted: tags: His kept;His cleaved; copies: 1;1; label: surface-attached array probe. In short, it runs like this: as §1
For B2, the binding signal is 9.13 PBM z-score against 500 random probes.
Still for that read-out and setting: the figure for B12 is 7.8 PBM z-score against 500 random probes.

The target in a further data set is PPARa:RXRa (Homo sapiens, UniProt Q07869;P19793 full;full). The data set is described as above. As to conditions: tags: GST kept;His cleaved; copies: 1;1; label: surface-attached array probe. The method in brief:
as §1
With B2, the binding signal is 7.33 PBM z-score against 500 random probes.
On the same count and under the same terms, with B12 the figure was 7.23 PBM z-score against 500 random probes.

The next data set deals with PPARg:RXRa (Homo sapiens, UniProt P37231;P19793 full;full). Description: no ligand; PBM; 180 nM : 90 nM RXRa; PBS pH 7.4, 2% milk, 0.02% Triton X-100, 1 mM DTT, BSA, 0.4 mg/ml salmon testes DNA. As to conditions: tags: His kept;His cleaved; copies: 1;1; label: surface-attached array probe.
Chain of PPARg:RXRa (P37231 29-505, chain 1 of 2): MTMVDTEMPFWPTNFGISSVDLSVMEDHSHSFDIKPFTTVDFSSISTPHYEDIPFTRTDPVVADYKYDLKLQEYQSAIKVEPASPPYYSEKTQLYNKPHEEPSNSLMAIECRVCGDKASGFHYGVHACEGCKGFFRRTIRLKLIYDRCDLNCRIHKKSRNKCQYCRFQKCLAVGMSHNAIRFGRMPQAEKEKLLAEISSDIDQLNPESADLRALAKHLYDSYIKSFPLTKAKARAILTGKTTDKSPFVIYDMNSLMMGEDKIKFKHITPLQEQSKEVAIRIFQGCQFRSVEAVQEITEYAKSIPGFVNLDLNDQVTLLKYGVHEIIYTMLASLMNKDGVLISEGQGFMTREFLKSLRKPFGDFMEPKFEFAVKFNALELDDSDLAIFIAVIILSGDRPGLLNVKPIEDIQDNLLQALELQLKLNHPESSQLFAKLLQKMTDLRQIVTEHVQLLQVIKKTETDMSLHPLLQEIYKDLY
Chain of PPARg:RXRa (P19793 whole entry, chain 2 of 2): as the sequence (P19793 whole entry, chain 2 of 2) above
Consider B13, for which the binding signal is 0.27 PBM z-score against 500 random probes.
B11: the binding signal was 4 PBM z-score against 500 random probes.
Same read-out and setting: the figure for B14 is 0.43 PBM z-score against 500 random probes.
As for B15, the binding signal was -0.12 PBM z-score against 500 random probes.
Still for that read-out and setting: with B16 the figure was -0.24 PBM z-score against 500 random probes; with B12, 10.8 PBM z-score against 500 random probes.

In another data set the target is RXRa (Homo sapiens, UniProt P19793). As to the kind of experiment: no ligand; PBM; 180 nM; PBS pH 7.4, 2% milk, 0.02% Triton X-100, 1 mM DTT, BSA, 0.4 mg/ml salmon testes DNA. To be noted: tags: His cleaved; chain copies: 2; label: surface-attached array probe.
With B2, the binding signal is 9.6 PBM z-score against 500 random probes.
With B16, the binding signal is -0.53 PBM z-score against 500 random probes.
As for B5, the binding signal is 7.88 PBM z-score against 500 random probes.

In the next data set the target is THRa:RXRa (Homo sapiens, UniProt P10827;P19793 full;full). As to the kind of experiment: no ligand; PBM; 90 nM : 90 nM RXRa; PBS pH 7.4, 2% milk, 0.02% Triton X-100, 1 mM DTT, BSA, 0.4 mg/ml salmon testes DNA. To be noted: tags: His kept;His cleaved; copies: 1;1; label: surface-attached array probe.
Chain of THRa:RXRa (P10827 other isoform, or with tags, fused parts or gaps, chain 1 of 2): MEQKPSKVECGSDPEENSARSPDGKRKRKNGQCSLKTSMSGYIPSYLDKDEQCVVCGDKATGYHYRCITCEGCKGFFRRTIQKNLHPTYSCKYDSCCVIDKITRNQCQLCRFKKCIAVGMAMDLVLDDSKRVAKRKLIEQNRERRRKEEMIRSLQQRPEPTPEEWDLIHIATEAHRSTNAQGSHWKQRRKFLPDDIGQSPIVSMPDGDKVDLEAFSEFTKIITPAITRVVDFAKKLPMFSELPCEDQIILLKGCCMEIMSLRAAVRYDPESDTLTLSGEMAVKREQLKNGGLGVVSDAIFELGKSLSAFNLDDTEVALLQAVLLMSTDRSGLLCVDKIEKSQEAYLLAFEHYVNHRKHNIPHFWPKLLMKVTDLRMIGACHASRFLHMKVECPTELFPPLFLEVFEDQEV
Chain of THRa:RXRa (P19793 whole entry, chain 2 of 2): as the sequence (P19793 whole entry, chain 2 of 2) above
For B7, the binding signal was 5.54 PBM z-score against 500 random probes.
B8: the binding signal is -0.56 PBM z-score against 500 random probes.
Same read-out and setting: the figure for B9 is -0.5 PBM z-score against 500 random probes; for B1 it is 5.49 PBM z-score against 500 random probes; for B2 it is 5.13 PBM z-score against 500 random probes.
Regarding B13, the binding signal was -0.54 PBM z-score against 500 random probes.
Regarding B3, the binding signal was 4.79 PBM z-score against 500 random probes.
The same measure, in the same setting: the figure for B11 is 5.15 PBM z-score against 500 random probes; for B4 it is 4.77 PBM z-score against 500 random probes; for B14 it is 0.33 PBM z-score against 500 random probes.
As to B15, the binding signal is -0.05 PBM z-score against 500 random probes.
Still for that read-out and setting: with B16 the figure was -1.02 PBM z-score against 500 random probes; with B5, 4.97 PBM z-score against 500 random probes.
Still for that read-out and setting: the figure for B12 is 5.07 PBM z-score against 500 random probes; for B6 it is 4.82 PBM z-score against 500 random probes.
Turning to B10, the binding signal was 5.25 PBM z-score against 500 random probes.
